Data on 6 sequences can be found in the supplement of paper PMC5998384.

Data set [1] relates to HeLa Kyoto. Nature of the data set: solubility in G1/S (NP-40 vs SDS abundance) (log2 ratio); higher = more soluble. The note with it: cell cycle stage: G1/S.
For data set [2], the system named is HeLa Kyoto. Briefly: solubility change mitosis vs G1/S (difference of NP-40 vs SDS log2 ratios) (log2 ratio difference); higher = more soluble in mitosis.
Data set [3] has as its system HeLa Kyoto. Nature of the data set: melting temperature (median over replicates), in situ; higher = more thermally stable.
The subject of data set [4] is HeLa Kyoto. Briefly: thermal stability score vs G1/S (z-score of summed log2 fold changes over temperatures); higher = more thermally stable than in G1/S.
[5] abbreviates: cell cycle stage: early G1 (4.5 h after nocodazole release).
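Wherever melting temperature (median over replicates), in situ is given: HeLa Kyoto cells synchronized by double thymidine or nocodazole block, proteins quantified by TMT10plex mass spectrometry, three independent biological replicates.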
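Wherever solubility change mitosis vs G1/S (difference of NP-40 vs SDS log2 ratios) is given: synchronized HeLa Kyoto cells (double thymidine block for G1/S, nocodazole release for mitosis), protein amounts in NP-40 versus SDS lysates quantified by mass spectrometry, three biological replicates.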
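Wherever solubility in G1/S (NP-40 vs SDS abundance) is given: HeLa Kyoto cells arrested at G1/S by double thymidine block, proteins quantified by TMT10plex mass spectrometry in mild NP-40 versus SDS extracts, three biological replicates.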
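Wherever thermal stability score vs G1/S (z-score of summed log2 fold changes over temperatures) is given: synchronized HeLa Kyoto cells, proteins quantified by TMT10plex mass spectrometry, three biological replicates, mitosis taken 0.5 h after nocodazole release, G1/S directly after double thymidine block.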

In the case of “MFSKFTSILQHAVEALAPSLPLQEDFVYHWKAITHYYIETSDDKAPVTDTNIPSHLEQMLDILVQEENERESGETGPCMEYLLHHKILETLYTLGKADCPPGMKQQVLVFYTKLLGRIRQPLLPHINVHRPVQKLIRLCGEVLATPTENEEIQFLCIVCAKLKQDPYLVNFFLENKMKSLASKGVPNVISEDTLKGQDSLSTDTGQSRQPEELSGATGMEQTELEDEPPHQMDHLSTSLDNLSVTSLPEASVVCPNQDYNLVNSLLNLTRSPDGRIAVKACEGLMLLVSLPEPAAAKCLTQSTCLCELLTDRLASLYKALPQSVDPLDIETVEAINWGLDSYSHKEDASAFPGKRALISFLSWFDYCDQLIKEAQKTAAVALAKAVHERFFIGVMEPQLMQTSEMGILTSTALLHRIVRQVTSDVLLQEMVFFILGEQREPETLAEISRHPLRHRLIEHCDHISDEISIMTLRMFEHLLQKPNEHILYNLVLRNLEERNYTEYKPLCPEDKDVVENGLIAGAVDLEEDPLFTDISPENTLPNQEWLSSSPPATPDHPKNDGKTEVHKIVNSFLCLVPDDAKSSYHVEGTGYDTYLRDAHRQFRDYCAICLRWEWPGSPKALEKCNLEAAFFEGHFLKVLFDRMGRILDQPYDVNLQVTSVLSRLSLFPHPHIHEYLLDPYVNLAPGCRSLFSVIVRVVGDLMLRIQRIQDFTPKLLLVRKRLLGLEPEGPIIDHITLLEGVIVLEEFCKELAAIAFVKYHASSTP [FAM160B1]”, the “solubility in G1/S (log2)” value in data set [1] came to 0.0585. In data set [2], the “solubility change mitosis (log2)” value is -0.212. Further, the melting temperature in data set [3] (cell cycle stage: G1/S) worked out at 52.1 °C; in data set [3] (cell cycle stage: mitosis), 51.1 °C. The thermal stability score in data set [4] (setting [5]) is -0.501; in data set [4] (cell cycle stage: mitosis), -0.078.

As to “MYTAIPQSGSPFPGSVQDPGLHVWRVEKLKPVPVAQENQGVFFSGDSYLVLHNGPEEVSHLHLWIGQQSSRDEQGACAVLAVHLNTLLGERPVQHREVQGNESDLFMSYFPRGLKYQEGGVESAFHKTSTGAPAAIKKLYQVKGKKNIRATERALNWDSFNTGDCFILDLGQNIFAWCGGKSNILERNKARDLALAIRDSERQGKAQVEIVTDGEEPAEMIQVLGPKPALKEGNPEEDLTADKANAQAAALYKVSDATGQMNLTKVADSSPFALELLISDDCFVLDNGLCGKIYIWKGRKANEKERQAALQVAEGFISRMQYAPNTQVEILPQGHESPIFKQFFKDWK [CAPG]”, the “solubility in G1/S (log2)” value in data set [1] is 0.272. Further, in data set [2], the “solubility change mitosis (log2)” value was -0.0974. In addition, the values for the melting temperature in data set [3] (cell cycle stage: G1/S) and in data set [3] (cell cycle stage: mitosis) were 50.2 °C and 50.3 °C, respectively. Besides, the thermal stability score in data set [4] (setting [5]) worked out at 0.941; in data set [4] (cell cycle stage: mitosis), 0.63.

“MTSPAAAQSREIDCLSPEAQKLAEARLAAKRAARAEAREIRMKELERQQKEEDSERYSRRSRRNTSASDEDERMSVGSRGSLRVEERPEKDFTEKGSRNMPGLSAATLASLGGTSSRRGSGDTSISIDTEASIREIKELNELKDQIQDVEGKYMQGLKEMKDSLAEVEEKYKKAMVSNAQLDNEKTNFMYQVDTLKDMLLELEEQLAESRRQYEEKNKEFEREKHAHSILQFQFAEVKEALKQREEMLEKHGIILNSEIATNGETSDTLNNVGYQGPTKMTKEELNALKSTGDGTLGRASEVEVKNEIVANVGKREILHNTEKEQHTEDTVKDCVDIEVFPAGENTEDQKSSEDTAPFLGTLAGATYEEQVQSQILESSSLPENTVQVESNEVMGAPDDRTRTPLEPSNCWSDLDGGNHTENVGEAAVTQVEEQAGTVASCPLGHSDDTVYHDDKCMVEVPQELETSTGHSLEKEFTNQEAAEPKEVPAHSTEVGRDHNEEEGEETGLRDEKPIKTEVPGSPAGTEGNCQEATGPSTVDTQNEPLDMKEPDEEKSDQQGEALDSSQKKTKNKKKKNKKKKSPVPVETLKDVKKELTYQNTDLSEIKEEEQVKSTDRKSAVEAQNEVTENPKQKIAAESSENVDCPENPKIKLDGKLDQEGDDVQTAAEEVLADGDTLDFEDDTVQSSGPRAGGEELDEGVAKDNAKIDGATQSSPAEPKSEDADRCTLPEHESPSQDISDACEAESTERCEMSEHPSQTVRKALDSNSLENDDLSAPGREPGHFNPESREDTRGGNEKGKSKEDCTMS [LRRFIP1]”: in data set [1], the “solubility in G1/S (log2)” value worked out at 0.265. Further, the “solubility change mitosis (log2)” value in data set [2] is 0.0557. For the same sequence, the melting temperature in data set [3] (cell cycle stage: G1/S) is 58.7 °C. In addition, the thermal stability score in data set [4] (setting [5]) was -2.05; in data set [4] (cell cycle stage: mitosis), -2.56.

For the sequence “MRVAVAGCCHGELDKIYETLALAERRGPGPVDLLLCCGDFQAVRNEADLRCMAVPPKYRHMQTFYRYYSGEKKAPVLTLFIGGNHEASNHLQELPYGGWVAPNIYYLGLAGVVKYRGVRIGGISGIFKSHDYRKGHFECPPYNSSTIRSIYHVRNIEVYKLKQLKQPIDIFLSHDWPRSIYHYGNKKQLLKTKSFFRQEVENNTLGSPAASELLEHLKPTYWFSAHLHVKFAALMQHQAKDKGQTARATKFLALDKCLPHRDFLQILEIEHDPSAPDYLEYDIEWLTILRATDDLINVTGRLWNMPENNGLHARWDYSATEEGMKEVLEKLNHDLKVPCNFSVTAACYDPSKPQTQMQLIHRINPQTTEFCAQLGIIDINVRLQKSKEEHHVCGEYEEQDDVESNDSGEDQSEYNTDTSALSSINPDEIMLDEEEDEDSIVSAHSGMNTPSVEPSDQASEFSASFSDVRILPGSMIVSSDDTVDSTIDREGKPGGTVESGNGEDLTKVPLKRLSDEHEPEQRKKIKRRNQAIYAAVDDDDDDAA [DBR1]”, the “solubility in G1/S (log2)” value in data set [1] was -0.0568. Further, in data set [2], the “solubility change mitosis (log2)” value was -0.212. The figures for the melting temperature in data set [3] (cell cycle stage: G1/S) and in data set [3] (cell cycle stage: mitosis) were 54 °C and 55.1 °C, respectively. The results for the thermal stability score in data set [4] (setting [5]) and in data set [4] (cell cycle stage: mitosis) were 1.33 and 3.28, respectively.

Take “MEGAKPTLQLVYQAVQALYHDPDPSGKERASFWLGELQRSVHAWEISDQLLQIRQDVESCYFAAQTMKMKIQTSFYELPTDSHASLRDSLLTHIQNLKDLSPVIVTQLALAIADLALQMPSWKGCVQTLVEKYSNDVTSLPFLLEILTVLPEEVHSRSLRIGANRRTEIIEDLAFYSSTVVSLLMTCVEKAGTDEKMLMKVFRCLGSWFNLGVLDSNFMANNKLLALLFEVLQQDKTSSNLHEAASDCVCSALYAIENVETNLPLAMQLFQGVLTLETAYHMAVAREDLDKVLNYCRIFTELCETFLEKIVCTPGQGLGDLRTLELLLICAGHPQYEVVEISFNFWYRLGEHLYKTNDEVIHGIFKAYIQRLLHALARHCQLEPDHEGVPEETDDFGEFRMRVSDLVKDLIFLIGSMECFAQLYSTLKEGNPPWEVTEAVLFIMAAIAKSVDPENNPTLVEVLEGVVRLPETVHTAVRYTSIELVGEMSEVVDRNPQFLDPVLGYLMKGLCEKPLASAAAKAIHNICSVCRDHMAQHFNGLLEIARSLDSFLLSPEAAVGLLKGTALVLARLPLDKITECLSELCSVQVMALKKLLSQEPSNGISSDPTVFLDRLAVIFRHTNPIVENGQTHPCQKVIQEIWPVLSETLNKHRADNRIVERCCRCLRFAVRCVGKGSAALLQPLVTQMVNVYHVHQHSCFLYLGSILVDEYGMEEGCRQGLLDMLQALCIPTFQLLEQQNGLQNHPDTVDDLFRLATRFIQRSPVTLLRSQVVIPILQWAIASTTLDHRDANCSVMRFLRDLIHTGVANDHEEDFELRKELIGQVMNQLGQQLVSQLLHTCCFCLPPYTLPDVAEVLWEIMQVDRPTFCRWLENSLKGLPKETTVGAVTVTHKQLTDFHKQVTSAEECKQVCWALRDFTRLFR [TNPO3]”: the “solubility in G1/S (log2)” value in data set [1] was -0.253. For the same sequence, the “solubility change mitosis (log2)” value in data set [2] is -0.0891. Besides, the melting temperature in data set [3] (cell cycle stage: G1/S) was 51.6 °C; in data set [3] (cell cycle stage: mitosis) it was 51.7 °C. The thermal stability score in data set [4] (setting [5]) was determined as 0.188; in data set [4] (cell cycle stage: mitosis), 1.24.

In the case of “MAKQKRKVPEVTEKKNKKLKKASAEGPLLGPEAAPSGEGAGSKGEAVLRPGLDAEPELSPEEQRVLERKLKKERKKEERQRLREAGLVAQHPPARRSGAELALDYLCRWAQKHKNWRFQKTRQTWLLLHMYDSDKVPDEHFSTLLAYLEGLQGRARELTVQKAEALMRELDEEGSDPPLPGRAQRIRQVLQLLS [C7ORF50]”, the “solubility in G1/S (log2)” value in data set [1] was -0.289. The “solubility change mitosis (log2)” value in data set [2] came out at 0.57. For the same sequence, the results for the melting temperature in data set [3] (cell cycle stage: G1/S) and in data set [3] (cell cycle stage: mitosis) were 50 °C and 53.5 °C, respectively. The thermal stability score in data set [4] (setting [5]) came out at 0.0776; in data set [4] (cell cycle stage: mitosis), 0.494.
